# Literature values in PMC3686100.
# Target: ClpP (Escherichia coli) (UniProt P0A6G7)
# Chain of UniProt P0A6G7 (P0A6G7 15-207): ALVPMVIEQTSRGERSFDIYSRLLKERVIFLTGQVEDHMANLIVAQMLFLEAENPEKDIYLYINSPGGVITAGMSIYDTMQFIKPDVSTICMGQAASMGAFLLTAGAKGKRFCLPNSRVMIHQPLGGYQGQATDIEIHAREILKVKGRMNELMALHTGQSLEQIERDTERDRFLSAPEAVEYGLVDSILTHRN
substance,measurement,value
ClpX (from UniProt P0A6H1),Kd,0.09 µM
